In this data set the target is NT-proBNP (UniProt P16860). The data set is described as follows: AuNP aggregation (LSPR, A750/A521), Hill fit; diluted urine; Hill n = 0.0751; NT-proBNP in 5 mM PBS pH 7.4; aptamer in 10 mM Tris-HCl, 0.2 mM EDTA (0.25 uM in assay); 15 min incubation; then citrate AuNPs and 40 uL 0.2 M NaCl; 25 C stated for CD sample only. Conditions: protein: commercial; antiparallel G4 proposed from CD.

A word on the Kd: it is the constant that tells how readily two partners part at equilibrium. High values mean weaker binding, low ones tighter binding.

Chain of NT-proBNP (P16860 27-134): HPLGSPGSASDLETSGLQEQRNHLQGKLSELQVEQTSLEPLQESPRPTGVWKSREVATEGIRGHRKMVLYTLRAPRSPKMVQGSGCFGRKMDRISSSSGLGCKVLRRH

B1: NT-proBNP aptamer (structured_DNA)
DNA: GGCAGGAAGACAAACAGGTCGTAGTGAAACTGTCCACCGTAGACCGGTTATCTGTTGGTCTGTGGTGCTGT
As for B1, binding was put at a Kd of 2.71 nM.

Values taken from paper PMC10377000, “LSPR-Based Aptasensor for Rapid Urinary Detection of NT-proBNP”.
